Assay: yeast display, Sf9 membrane polyspecificity reagent, FACS + sequencing; frameworks hold sequencing errors
Procedure, shortened: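 Galactose-induced (36–48 hours) yeast carrying a synthetic nanobody display library were exposed to 10% biotinylated, detergent-solubilized Sf9 membrane reagent at 4 °C for 1 hour. FACS followed streptavidin microbead enrichment, using low and high (top ~1%) gates for expression (anti-HA) and reagent binding (streptavidin). Colony PCR, MiSeq 2 × 250 sequencing and CDR-length filtering followed. Labels for polyreactivity reflect the gate of origin.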

Row | Sequence | polyreactivity (PSR sort gate)
1 | QVQLVESGGGLVLAGGSLRLSCAASGSTFGRYAMGWSRQAPGKERELVAAISRGTTTNYADSVKGRFTIARDNAKNTVYLQMNSLKPEETAVYYCAADQPSKRYYYWGQGTQVTVSS | low polyreactivity
2 | QVQLVESGGGLVLAGGSLRLSCAASGSTFIWNAMGWYRQAPGKERELVAAIRRGSSTNYADSVKGRFTISRDNAKNTVYLQMNSLKPEDTAVYYCAKKQVTTDVSSETFVLEMDYWGQGTQVTVSS | low polyreactivity
3 | QVQLVESGGGLVLAGGSLRLSCPASGFTFRYYAMGWSRQAPGKDRELVAAISVSGGSTYYADSVKGRFTISRDNAKNSVYLQMNILKPEDTAVYYCNARRNVGFGYWGQGTQVTVSS | high polyreactivity
4 | QVQLVESGGGLVPAGGSLRLSCAASGFIYWYAMGWYRQAPGKETELVAAITWSGGSTYADSVKGRFTISRDNAKNTVYLQMNCLKPEDSAVYYCAADKYSQWSSHTRVRYDYWGQGTQETVSS | low polyreactivity
5 | QVQLVESGGGLVPAGGSLRLSCAASGFTFEYYVIGWYRHAPGKERELVAAISSRGGSTYYADSVKGRFTISRDNAKNTVYLQMNSLKPDDTAVYYGATRDPYPRRREFEYWGQGTQVTVSS | low polyreactivity
6 | QVQLVESGGGLVPAGGSLRLSCAASGFTFGVYAMGWYRQAPGKERELVAAITWSGGRTYYADSVKGRFTISRDNAKNSVYLQMNSLKPEDTAVYYCAAGFYRYNAVRYDYWGQGTQVTVSS | high polyreactivity
7 | QVQLVESGGGLVPAGGSLRLSCAASGFTFSYYAMGWYRQAPGKERELVAAISWSGGRTYYADSVKGRFTISRDNAKNTVYLEMNRLKPEDTAVYYCAVVYYGSIFVLEYDYWGQGTQVTVSS | high polyreactivity
8 | QVQLVESGGGLVPAGGSLRLSCAASGLTFTTYAMGWYRQAPGKERELVAANSNSGATTYYADSVKGRFTISRDNAKNTVYLQMNSLKREETAVYYCAATSYTATWRYYYWGQGTQVTVSS | high polyreactivity
9 | QVQLVESGGGLVPAGGSLRLSCAASGRTLYGYAMGWYRQAPGKERELVAAISGGGSTYYADSVKGRFTISRDNAKNTVYLQMNSLKPEDTAVYYCARRANFYVRRYYWGQGSQVTVSS | high polyreactivity
10 | QVQLVESGGGLVPAGGSLRLSCAASGSTFTQNARGWYRQAPGKERELVAAISWSGARTYYADSVKGRFTISPDNANNTVYLQMNSLKPEDTAVYYCNNYARKRGTTNDYWGQGTQVTVSS | high polyreactivity
11 | QVQLVESGGGLVPAGGSLRLSCASSGIIFWVNAMGWYRQAPGNERELVAAIRSDGSTKYADSVKRRFTISRDKAKNTVYVQMNSLKPVDTALYYCAKRDYSYPWFRDYYYWGQGTKVTVSS | low polyreactivity
12 | QVQLVESGGGLVPAGGSRRLSCAASGSIFTSYAMGWYRQAPGKERELVAAISSSGGSTYYADSVSGRFTISRDNAKQTVYFQMNSLKPEDTAVYYCAARYKGVYAPHYYWGQGTQVTVSS | high polyreactivity
13 | QVQLVESGGGLVPARGSLRLSCAASGSTFSDNAMGWYRQAPGKERELVAAINWSVGSTYYADSVKGRFTISRDNAKNTVYLQMNRRKPEDTAVYYCAGGYSLYESLVIFDYWGQGTQVTVSS | low polyreactivity
14 | QVQLVESGGGLVQAAGSLRLSCAASGFIFQAYAMGWYRQAPGKERELVAAISSSGGSTYYADSVKGRFTISRDNAKYTVYLKRNILKPEDTAVYYCAARSRRVSLLSESYGYWGQGTQVTVSS | high polyreactivity
15 | QVQLVESGGGLVQAAGSLRLSCAASGFTLTGNAMGWYRQATGKERELVAAISRNGGSTFYADSVKGRFTISRDNAKNTVFLQMNSLKPEDTAVYYCNASRYRHSAYKYDSWGQGTQVTVSS | high polyreactivity
16 | QVQLVESGGGLVQAAGSLRLSCAASGITFRWYAMGWYRQAPGKERELVAAITYRGGSTHYEDSVKGRFTISRDNAKTSVYLQMNSLKPEDTAVYYCAVRRWPRYRWSDYWGKGTQVTVSS | low polyreactivity
17 | QVQLVESGGGLVQAAGSLRLSCAASGNIFVRYVMGWYRQAPGKERELVAAITTSGGSTRYADSVKGRFTISRDNAKNSVYLQMNSLKPEDTAVYYCAARFRYRHLTYGYWGQGTQVTVSS | high polyreactivity
18 | QVQLVESGGGLVQAAGSLRLSCAASGRTFSGYAMGWYRQAPGKERELVAAIRWSGGSTYYADSVKGRFTISRDNAKNTVYLQMNSLKPEDTAVYYCATRDYYYRYGYWGQGTQVTVSS | high polyreactivity
19 | QVQLVESGGGLVQAAGSLRLSCAASGSTFDNKVMGWYRQAPGKERELVATITWGDGSTSYADSVKGRFTISRDIAKNTVYLELNSRKREDTAVYFCAAGEYYHRIFLWYVYWGQGTKVTVSS | low polyreactivity
20 | QVQLVESGGGLVQAAGSLRLSCAASGYTLAGNAMGWYRQSPGIERELVAAIDWNGGSTTYADSVKGRFTISRDNAKNTVYLQMNSLKPEDSAVYYCNVDLGVNGDYWGQGWQVTVSS | low polyreactivity
21 | QVQLVESGGGLVQAAGSLRLSCATSGFTFVSNAMGRYRQPHGKQRELVAAITKRRSGSTYYADSVKGRFTISRDNAKNTVYLQMNSLKPEDTAVYYCDRVPDTDGEYWGQGTQVTVSS | high polyreactivity
22 | QVQLVESGGGLVQAAGSLRLSFAASGSIFGRYPMGWYRQAPGKERELVAAISTGDSTYYADSVKGRFTISRDNAKNTVYLQMISLKPEDTAVYYCNRRGRRGYDYWGQGTQVTVSS | high polyreactivity

Row | Sequence | polyreactivity (PSR sort gate)
23 | QVQLVESGGGLVQAAGSLRLSSAASGLIFPYYVMGWYRQAPGKERELVAAISVSGGNTYYADSVKGRFTITRDNAKYTVYLQLNSLKPVDTAVYYSAADHYRGSYDYWGQGSQVTVSS | high polyreactivity
24 | QVQLVESGGGLVQAAGSLRLSSAASGYTFYINAMGSYRQAPGKERELVATIRRRGGSTYYADSVKGRFTISRDNAKNTVYLQMNSLKPEDTAVYYCNADTLGGKYVYQYRRGFDYWGHGTQVTVSS | high polyreactivity
25 | QVQLVESGGGLVQAAGSLRLSSAPSGRIFYKNARGWYRQAPGKETELVAAISWRGTSTYYADSVKGRFTISRDNAKNTVYLQMNILKPEDTAVYYCNTLYYSQREIYYWGYDSWGKGTQVTVSS | high polyreactivity
26 | QVQLVESGGGLVQAAPSLRLSCAASGSTINNNAMGWYRQAPRKERELVAAIDSGFSTNYADSVKGRFTISRDNAKNTVYLQMNSLKPEDTAVYYCYADPDYFDYWGQGTQVTVSS | low polyreactivity
27 | QVQLVESGGGLVQAGARLRLSCAASVSTFQSNAMGWSRQAPGKERELVAAIDQSGGSTYYADSLKGRFTISRDNAKNTVYLQMNSLKPEYTAVYYCAARTSGYWFSYGSWGQGTQVTVSS | high polyreactivity
28 | QVQLVESGGGLVQAGASHRLSCAASGSTFRYNSMGSYRQAPGKERELVAAISRGGSTNYADSVNGRFTISRDNANNTVYLQMISLKPEATAVYYCAASGTRQEYDYWGQGTQVTVSS | high polyreactivity
29 | QVQLVESGGGLVQAGASLRISCAASGNILPVYAMGWYRQAPGKEREFVAAITSRGGSTYYADSVKGRFTISRDNAKNTVYLQMNSLKPEDTAVYYCAAKYLRAYGYWGQGTQVTVSS | high polyreactivity
30 | QVQLVESGGGLVQAGASLRLSCAASGFTFGVYAMVWYRQAPGTVIELVAAISSSGGSTYYADSVKGRFTISRDNAKNTVYLQMNSLKPEDTAVYYCAKDTNSYYKYGYWGQGTQVTVSS | high polyreactivity
31 | QVQLVESGGGLVQAGASLRLSCAASGIILGSYAMGWYRQAPAKERELVAGITSGGGKYYADSVKGRFTISRDNAKNTVYLQMNSMKPEYTAVYYCAKLYFHYYRYGYWGQGTQVTVSS | low polyreactivity
32 | QVQLVESGGGLVQAGASLRLSCAASGITFTPYAMGWYRQAPGKERELVAAISWRGGSTYYADSVKGRFTISRDNAKNTVYLQMNSLKPEDTAVYYCAKDGRGYGRYSRYYTGDYWGQGTQVTVSS | low polyreactivity
33 | QVQLVESGGGLVQAGASLRLSCAASGLIFIHYAMGWYRQAPGKERELVATISRSGVRTYYADSVKGRFTISRDNAKNTVYLQMNSLKPEDTAVYYCAADYTTNFWGYRYNYWGQGTQVTVSS | low polyreactivity
34 | QVQLVESGGGLVQAGASLRLSCAASGLNFKRNAMGWYRQAPGKERELVAAIRYSTDSTNYADSVKGRFTISRDNAKNTVFLQMNSLKPEDTAVYYCAKDKQDYEYWGQGTLVTVSS | low polyreactivity
35 | QVQLVESGGGLVQAGASLRLSCAASGLTFIFYAMGWYRQAPGKERELVAAISVSGGCTYYADSVKGRFTISRDNAKNTVYLQMNSLKPEDTAVYYCAADREHFATYGPHMDYWGQGTQVTVSS | low polyreactivity
36 | QVQLVESGGGLVQAGASLRLSCAASGRIFRNYAMGWYRQAPGKERELVAAISSSGGSTYYADSVKGRFTISRDIAKNTVYFQMNSLKPEDTAVYYCAAVARVRGRGDYWGQGSQVTVSS | high polyreactivity
37 | QVQLVESGGGLVQAGASLRLSCAASGRIFYLNVMGWYIQAPGKERELVAAISSSDDSTYYADSVKGRFTISRHYAKNTVYLQMNSLKPEDTAVYYCAAGYHQVQNYGDAYYWSELYSWGLGTQVTVSS | low polyreactivity
38 | QVQLVESGGGLVQAGASLRLSCAASGSIFADYAMGWYRQAPGKERELVAAISYNGDSTYYADSVKGRFTISRDNAKNTVYLQMNSLKPEDTGVYYCATEDNYWYVTGDLYHTAFYYWGQGTQVTVSS | low polyreactivity
39 | QVQLVESGGGLVQAGASLRLSCAASGSIFAGYAMGWYRQAPWKERELVAAISWSGGGTYYADSVKGRFTISRDNEKNTVYLQMNSLKPEDTAVYYCNAYGYRHRGNGYWGQGTQVTVSS | high polyreactivity
40 | QVQLVESGGGLVQAGASLRLSCAASGSIFIYYAMGWYRQAPGKERELVAAISGGGRTNYADSVKGRFTISRDNAKNTVYLQMNSLKPEDTAVYYCAADPVYWYSTMDFWGQGTQVTVSS | low polyreactivity
41 | QVQLVESGGGLVQAGASLRLSCAASGSISKSYAMGWYRQAPGKERELVAAISWRGGSTYADSVKGRFTISRDNAKNTVYLQMNSLKPEDTAVYYCAAVPVHTGSLYWGFTTGYDYWGQGTQVTVSS | low polyreactivity
42 | QVQLVESGGGLVQAGASLRLSCAASGSTSYPYAMGWYRQAPWKEREFVAAITRSGGSTYYADSVKGRYTISRDNAKNTVYLQMNSLKPEDTAFYYCAARRYYFTDWYRRYDYWGQGTQVTVSS | high polyreactivity
43 | QVQLVESGGGLVQAGASLRLSCAATGNIFVPNAMGWYRQEPGKERELVAAIRRGGSTNYADSVKGRFTISRDNAKNTVYLQMNSMKPEDTAVYYCAKSRVSFTELEGYYWGQGTQVNVSS | low polyreactivity

From the nanobody polyreactivity screen of Harvey et al. (2022)
